Measurements reported in the supplement of paper PMC9233669.
Variants at the floor of the assay were thinned out.

Experiments:
biotinyl-Met-oxazolone = experiment: self-aminoacylation, catalytic enhancement (BMO) (fold over background); higher = more active; k-Seq, kA / k0A0; sequences stand for … in GGGAAUGGAUCCACAUCUACGAAUUC…UUCACUGCAGACUUGACGAAGCUG
Outline: (§1)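 Working in 50 μL HEPES/NaCl/KCl/MgCl2/CaCl2 buffer with 5% acetonitrile at pH 6.9–7.0, mutagenized RNA pools (0.43 μM; 21-nt variable region) were reacted with 2–1250 μM of each biotinyl-aminoacyl-oxazolone for 90 minutes at room temperature. Streptavidin capture followed, with quantification by triplicate qPCR and Illumina sequencing. Catalytic enhancement is reported as median kA over the uncatalyzed rate, the low-activity peak of a bimodal Gaussian fit to the data.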

biotinyl-Trp-oxazolone = experiment: self-aminoacylation, catalytic enhancement (BWO) (fold over background); higher = more active; k-Seq, kA / k0A0; sequences stand for … in GGGAAUGGAUCCACAUCUACGAAUUC…UUCACUGCAGACUUGACGAAGCUG
Outline: as §1

biotinyl-Leu-oxazolone = experiment: self-aminoacylation, catalytic enhancement (BLO) (fold over background); higher = more active; k-Seq, kA / k0A0; sequences stand for … in GGGAAUGGAUCCACAUCUACGAAUUC…UUCACUGCAGACUUGACGAAGCUG
Outline: as §1

biotinyl-Ile-oxazolone = experiment: self-aminoacylation, catalytic enhancement (BIO) (fold over background); higher = more active; k-Seq, kA / k0A0; sequences stand for … in GGGAAUGGAUCCACAUCUACGAAUUC…UUCACUGCAGACUUGACGAAGCUG
Outline: as §1

biotinyl-Phe-oxazolone = experiment: self-aminoacylation, catalytic enhancement (BFO) (fold over background); higher = more active; k-Seq, kA / k0A0; sequences stand for … in GGGAAUGGAUCCACAUCUACGAAUUC…UUCACUGCAGACUUGACGAAGCUG
Outline: as §1

biotinyl-Val-oxazolone = experiment: self-aminoacylation, catalytic enhancement (BVO) (fold over background); higher = more active; k-Seq, kA / k0A0; sequences stand for … in GGGAAUGGAUCCACAUCUACGAAUUC…UUCACUGCAGACUUGACGAAGCUG
Outline: as §1

Sequence	self-aminoacylation (biotinyl-Met-oxazolone)	self-aminoacylation (biotinyl-Trp-oxazolone)	self-aminoacylation (biotinyl-Leu-oxazolone)	self-aminoacylation (biotinyl-Ile-oxazolone)	self-aminoacylation (biotinyl-Phe-oxazolone)	self-aminoacylation (biotinyl-Val-oxazolone)
CUUACCCUGAUCAUCGAGUGA [Fam2.1 aminoacylation ribozyme variant]	7.49	9.22	7.51	3.64	16.5	3.94
AUUCACCUACGUCACCGGGUG [Fam2.2 aminoacylation ribozyme variant]	4.43	3.84	5.96	2.72	36.4	2.84
CCACAAUUGAAGCAAUCGGUC [Fam1B.1 aminoacylation ribozyme variant]	0.746	1.16	0.716	0.913	0.687	0.869
AAGUUUGCGAAUAGUCGCAGG [Fam3.1 aminoacylation ribozyme variant]	1.79	2.44	1.89	1.7	4.04	1.59
CCAAAAUUCAAGCAAUCGGUC [Fam1B.1 aminoacylation ribozyme variant]	1.01	1.13	1.08	1.17	1.09	1.21
CCCCACUUCAAGCAAUCGGCC [Fam1B.1 aminoacylation ribozyme variant]	3.04	11.3	2.75	2.74	20.8	3.8
AACUUUGCUAAUAUUCGCAAG [Fam3.1 aminoacylation ribozyme variant]	1.51	1.75	1.94	1.76	1.42	1.65
CUACAGCAAACAAUCGGUCUG [Fam1A.1 aminoacylation ribozyme variant]	0.482	0.574	0.577	0.48	0.421	0.65
GUACUUCAAACAAACGGUCUG [Fam1A.1 aminoacylation ribozyme variant]	1.22	1.15	1.31	1.43	1.72	1.15
AUUACCCUGGUCAUCGAUUGC [Fam2.1 aminoacylation ribozyme variant]	0.757	0.663	0.84	1.15	0.81	0.926
AUUUACCUAGGGCAUCGGGUG [Fam2.2 aminoacylation ribozyme variant]	3.65	3.7	3.47	2.92	16.7	3.12
CCACAUUUCAAGCAAUCGUUC [Fam1B.1 aminoacylation ribozyme variant]	0.83	0.727	0.798	0.94	1.13	1.16
AAGUUUGCUAAUAGUCCCGAG [Fam3.1 aminoacylation ribozyme variant]	1.28	2.65	1.31	1.22	1.54	1.27
AUUACCCUGGUCGUCGCGUGA [Fam2.1 aminoacylation ribozyme variant]	6.7	8.26	8.84	3.98	48.7	4.34
AUUACACUGGUCAUCGAGUGA [Fam2.1 aminoacylation ribozyme variant]	5.44	6.94	5.86	3.17	19.7	3.09
AUUACCUUAGUCAUCGAGUGA [Fam2.1 aminoacylation ribozyme variant]	4.41	5.48	4.62	2.71	14.8	2.59
CCUCACUGCAAGCAAUCGGUC [Fam1B.1 aminoacylation ribozyme variant]	0.832	1.17	1.24	1.26	1.44	1.41
CCACACUUCAAGCAAACGGUU [Fam1B.1 aminoacylation ribozyme variant]	1.25	0.973	1.34	1.32	1.41	1.59
AUUGCCCUGGUCAUAGAGUGA [Fam2.1 aminoacylation ribozyme variant]	9.01	10.9	8.58	4.05	57.9	4.65
UUUACCCUGGUCAUAGAGUGA [Fam2.1 aminoacylation ribozyme variant]	5.18	7.54	5.87	2.89	27.7	3.07
AAACACCUAGGUCAUCGGGUG [Fam2.2 aminoacylation ribozyme variant]	2.46	4.7	3.04	3.41	23.9	3.09
CUACUUAAAACAAUCGGUCGG [Fam1A.1 aminoacylation ribozyme variant]	0.786	0.59	0.857	0.878	0.727	0.74
AUUACCCUGGUCACCGAGUGG [Fam2.1 aminoacylation ribozyme variant]	2.6	3.23	3.56	1.57	7.88	2.08
CCACACUUCAAUCAAUCGGUU [Fam1B.1 aminoacylation ribozyme variant]	1.16	5.87	1.34	1.47	7.61	1.21
AUUAACCUAGGUCACCGGGUG [Fam2.2 aminoacylation ribozyme variant]	4.09	5.15	4.52	3.19	23.6	3.13
AUUACCCUGGUCAUCGAGAGA [Fam2.1 aminoacylation ribozyme variant]	1.8	1.46	1.72	1.28	3.1	1.36

Sequence	self-aminoacylation (biotinyl-Met-oxazolone)	self-aminoacylation (biotinyl-Trp-oxazolone)	self-aminoacylation (biotinyl-Leu-oxazolone)	self-aminoacylation (biotinyl-Ile-oxazolone)	self-aminoacylation (biotinyl-Phe-oxazolone)	self-aminoacylation (biotinyl-Val-oxazolone)
AUUACCCUGGUCAUCGAGUUG [Fam2.1 aminoacylation ribozyme variant]	2.14	1.47	2.04	1.27	3.62	1.75
CUACUUCAUACAAUCGCUCUG [Fam1A.1 aminoacylation ribozyme variant]	0.626	0.357	0.605	0.66	0.52	0.627
AUCACCCUGGUCAGCGAGUGA [Fam2.1 aminoacylation ribozyme variant]	8.22	10.5	8.3	4.13	38.2	4.3
AUUCACGUAGGUCAUAGGGUG [Fam2.2 aminoacylation ribozyme variant]	2.17	1.97	2.36	1.67	2.23	1.92
AUUCACCUAGUUCAUCGGCUG [Fam2.2 aminoacylation ribozyme variant]	1.27	1.03	1.57	1.36	4.73	1.55
AAGUUUGCGAAAAGUCGCAAG [Fam3.1 aminoacylation ribozyme variant]	1.8	1.3	1.8	1.46	2.82	1.43
CCACACUCCAAGCAAUCAGUC [Fam1B.1 aminoacylation ribozyme variant]	0.699	0.672	0.73	0.781	1.54	0.911
AACUUUGCUAAUAGUGGCAAG [Fam3.1 aminoacylation ribozyme variant]	0.764	1.11	1.44	1.07	1.37	0.919
UUUCAACUAGGUCAUCGGGUG [Fam2.2 aminoacylation ribozyme variant]	5.1	5.22	5.6	3.58	35.7	3.67
AAUUUUGCUAAUAGUCGGAAG [Fam3.1 aminoacylation ribozyme variant]	1.13	1.2	1.22	1.23	3.1	1.03
AUGACCCUGGUGAUCGAGUGA [Fam2.1 aminoacylation ribozyme variant]	4.4	5	5.51	2.8	27.3	2.44
AUGACCCUGGUCGUCGAGUGA [Fam2.1 aminoacylation ribozyme variant]	1.25	0.916	1.38	1.01	4.65	0.888
CCACAGUUCAAGCAAUCGGGC [Fam1B.1 aminoacylation ribozyme variant]	2.81	3.13	2.18	2.04	10	2.42
CCACACUUCAACGAAUCGGUC [Fam1B.1 aminoacylation ribozyme variant]	1.03	9.08	0.962	0.873	11.2	1.09
AAGUUUGCUAAUUGUCGCCAG [Fam3.1 aminoacylation ribozyme variant]	1.53	1.73	1.49	1.49	5.34	1.39
CCACACUUCAAGCCAUCGGUG [Fam1B.1 aminoacylation ribozyme variant]	4.72	4.89	6.79	3.57	31.3	4.15
GUUCACCUAGGUCAGCGGGUG [Fam2.2 aminoacylation ribozyme variant]	4.02	4.42	4.21	2.92	26.1	3.23
CUACUUCAAAUAAUUGGUCUG [Fam1A.1 aminoacylation ribozyme variant]	0.953	0.637	0.869	0.844	1.19	0.802
GCACUUCAAACAAUCGGUCUG [Fam1A.1 aminoacylation ribozyme variant]	2.32	62.3	4.11	2.33	156	2.16
GUACUUCAAACAAUCGGUCUC [Fam1A.1 aminoacylation ribozyme variant]	1.65	26.5	2.06	1.5	39.5	1.4
CUACUUCAAACAAUCAGUAUG [Fam1A.1 aminoacylation ribozyme variant]	0.891	2.46	0.777	0.847	6.02	0.819
AUUCACCUUGGCCAUCGGGUG [Fam2.2 aminoacylation ribozyme variant]	4.02	4.95	4.98	2.9	31.6	3.88
GUACUUCAAAAAAUCGGUCUG [Fam1A.1 aminoacylation ribozyme variant]	1.16	7.93	1.62	1.57	7.83	1.11
AUUCACCUAGGACAUCGGUUG [Fam2.2 aminoacylation ribozyme variant]	0.919	0.663	1.28	0.888	2.89	1.03
ACACACGUCAAGCAAUCGGUC [Fam1B.1 aminoacylation ribozyme variant]	1.96	2.55	2.14	1.88	3.48	2.04
